1 molecule from patent US7709240B2, “AMP deaminase originating streptomyces and utilization thereof” (Amano Enzyme Inc., priority 2004, dated 2010) can be followed below.

Data set [1] can be described thus: Enzyme kinetics (Km, Vmax). Format: biochemical.
Data set [2] is described as follows: Substrate specificity. Format: biochemical.
Data set [3] is described as follows: Thermostability of purified enzyme: residual activity after 30 minutes at each temperature. In kind it is physicochemical. As for the experimental part: (§1) By using the decrease of OD265 at the time of reaction as an index, the enzyme activity was measured. To 1.5 ml of solution obtained by mixing 0.017M 5′ AMP-2Na and 1/15M phosphate buffer solution (pH 5.6) at the ratio of 1:2, 0.5 ml of sample solution was added so as to obtain a reaction solution, which was reacted at 37° C. for 15 minutes. Then, 2% perchloric acid solution was added so as to stop the reaction and 100 μl of the solution was taken out. Water was added to the solution so that the total amount was 5 ml. Then, OD265 was measured. The value similarly measured at reaction time of 0 minute was defined as a blank. Under the above-mentioned conditions, a case where an absorbance difference is reduced by 0.001 during 60 minutes was defined as one unit.
Subsequently, the thermostability of the enzyme was examined by the following procedure. An enzyme solution (0.15 ml) containing 2.8 μg protein (total amount) was adjusted to pH 5.6 by using acetate buffer (pH 5.0), and then treated for 30 minutes at each temperature (40° C., 50° C., 60° C., 65° C., 70° C., and 75° C.). Then, the residual activity (percent with respect to the enzyme activity in the case where the treatment was not carried out) was measured. At 65° C. or less, about 90% or more of activity is maintained. Furthermore, also when the treatment is carried out at 70° C., about 55% of the activity is maintained.

Data set [4] can be described thus: Relation between pH and activity of purified enzyme. In kind it is biochemical. As for the experimental part: as §1
Next, the relation between pH and activity of the obtained purified enzyme was examined. […] In the wide range of pH from about 4.5 to about 8.5, relatively high activity is observed. In the range of pH from about 5.0 to about 8.0, 70% or more of the reaction property is observed. Furthermore, it is shown that even in the case where pH is 9.0, about 40% of reactivity is obtained.

Data set [5] in a line: Substrate specificity. In kind it is biochemical. From the text: It is reported that adenosine deaminase derived from Streptomyces aureofaciens has a wide range of substrate property, for example, catalytic ability of AMP (non-patent document 2). Taken this into consideration, in order to confirm whether deaminase derived from Streptomyces murinus obtained in the above-mentioned method is AMP-deaminase or adenosine-deaminase, the substrate specificity was investigated. Note here that the relative activity, when the enzyme activity with respect to 5′ AMP is defined as 100% is represented. […] In particular, the enzyme acted on 5′dAMP, ADP and ATP favorably. […] Furthermore, it was determined that the enzyme was able to be employed preferably in a reaction using 5′dAMP, ADP and ATP as a substrate.
(§2) Then, in the genus Streptomyces in the stored strains of Amano Enzyme Inc., screening of AMP deaminase producing strain was carried out. […] Furthermore, the residual activity was measured when the activity obtained when treatment was not carried out was defined as 100%. […]
In order to determine whether the deaminase derived from transformant (SAD-1) obtained as mentioned above was AMP deaminase or Adenosine-deaminase, the substrate specificity was investigated. […] Furthermore, it was determined that the enzyme can be preferably used with respect to the reaction using 5′-dAMP, ADP and ATP as a substrate.
This is another data set of the same source.

Data set [6] can be described thus: Relation between reaction temperature and activity of purified enzyme. The following applies: reaction temperature 75° C.; activity at 65° C. = 100%. Format: biochemical. The procedure:
as §1
The relation between the reaction temperature and activity of the obtained purified enzyme was examined. […] As is apparent from the graph of FIG. 7 (a), high activity is observed in the wide range from 40° C. to 70° C. Furthermore, even in the case where the reaction temperature is 75° C., about 50% activity is found. Thus, it is shown that the enzyme acts favorably under the wide range of temperatures.

The nature of data set [7]: Thermostability of crude enzyme solutions / culture supernatant: residual AMP deaminase activity after 30 minutes. Format: physicochemical. The following applies: enzyme solution or culture supernatant treated 30 minutes at 30-75° C., pH 5.6. The procedure:
as §1, with “unit. […]” for “unit.”
as §2
The thermostability of AMP deaminase produced by transformant (SAD-1) was measured. Culture supernatant of SAD-1 prepared by the above-mentioned method was treated at a predetermined temperature, and the residual AMP deaminase activity was measured (pH 5.6). […]

B1: AMP deaminase derived from Streptomyces murinus: thermostable AMP deaminase enzyme produced by Streptomyces murinus IFO14802; amino acid sequence SEQ ID NO: 1 (protein, listed as Streptomyces murinus)
chain: APPPRQATAAEARTDAYLRSVKDRPAALRAFFRQLPKGGDLHNHLSGAVNTDYLIELAAEDGLCIDATMTAVPSPCGPGTRPAADARTDRAFHDAIVRAWSMQDFPPDENGHDHFFDTFGKFGEVTWRHRGKLLAQVADTVVANNQSYLETMVTPASDGAKQLADQVGWDADLTALHRKLAAGGKLDKLVADARKEADDGDAEFRATEHCGTAKARPACGLTVRWISQASRGSSPVRVFTQLDLGMRLAEADSRFVAVNLVQPEDWDSSLENYSLQMRMVGYLRTVYPKAHVTLHAGELWPGLVKPEALKFHIAEAVDIAHTQRVGHGVDLVHEDNWQRTARTMAARQIAVEVPFSSNAQILGVKGAEHPFTTYRRYGVPVVLATDDPGVSRIDISHEYQYAAATYGLGYPELKDLARASLQYAFLPGASLWQGNPTAQGYHPVAACRAERPGQPVHSAACRRLLDGSARARLEWRQEAAFAAFERAHARG
As usually defined, the Km is the substrate concentration at which the rate is half of its maximum. By Vmax is commonly meant the top rate of the reaction or transport when substrate is in excess. Take B1: in data set [1], the Km was determined as 950 µM and the Vmax turned out to be 3.5e+07 µmol/min/mg. In the data set “Substrate specificity [2]”, the “action on substrate 5′-CMP” value was “did not act on”. Besides, the “temperature stability (stable at)” value in data set [3] (acetate buffer solution (pH 5.6)) was not above 65 °C. Further, the residual activity entry in data set [3] (treated at 70° C. for 30 minutes, pH 5.6 acetate buffer, untreated = 100%) is “about 55%”. Further, the “optimum pH” value in data set [4] (McIlvaine buffer solution) was “around 5.6”. Besides, in data set [4] (pH 9.0, activity at pH 5.6 = 100%), the “relative activity (reactivity)” value is “about 40%”. For the same molecule, in data set [4] (pH from about 5.0 to about 8.0, activity at pH 5.6 = 100%), the “relative activity (reaction property)” value is not below 70%. Moreover, the “action on adenosine as fraction of the action on 5′-AMP” value in “Substrate specificity [5]” is 1/10. Besides, the “action on substrate Adenosine” value in the data set “Substrate specificity [5]” (activity with respect to 5′ AMP = 100%) was “also acted on and weak”. Further, the relative activity result in data set [6] is listed as “about 50%”. In addition, in data set [7], the “thermostability (residual AMP deaminase activity)” value is “extremely excellent”.
